# Patent US20220409661A1 (published 2022)
# T1: WT-1 (Wilms tumor protein 1) peptide on HLA-A*02:01 (human)
# T1 peptide: RMFPNAPYL
# Biological target: T1, WT-1 (Wilms tumor protein 1) peptide on …
# Assay: multimer staining
row,Binder,binding result
1,"TCR #10 (TCR, V domains shown) Valpha: AQTVTQSQPEMSVQEAETVTLSCTYDTSESNYYLFWYKQPPSRQMILVIRQEAYKQQNATENRFSVNFQKAAKSFSLKISDSQLGDTAMYFCAFNPWENYGQNFVFGPGTRLSVLP Vbeta: GAVVSQHPSWVICKSGTSVKIECRSLDFQATTMFWYRQFPKQSLMLMATSNEGSKATYEQGVEKDKFLINHASLTLSTLTVTSAHPEDSSFYICSARPHSLTDTQYFGPGTRLTVL",recognises
2,"TCR #6 (TCR, V domains shown) Valpha: EDQVTQSPEALRLQEGESSSLNCSYTVSGLRGLFWYRQDPGKGPEFLFTLYSAGEEKEKERLKATLTKKESFLHITAPKPEDSATYLCAVQTMDGNQFYFGTGTSLTVIP Vbeta: NAGVTQTPKFQVLKTGQSMTLQCAQDMNHEYMSWYRQDPGMGLRLIHYSVGAGITDQGEVPNGYNVSRSTTEDFPLRLLSAAPSQTSVYFCASSYSLWDLQETQYFGPGTRLLVL",recognises
